Target: T1, Ste2 (yeast) (UniProt D6VTK4)
T1 sequence (looked up): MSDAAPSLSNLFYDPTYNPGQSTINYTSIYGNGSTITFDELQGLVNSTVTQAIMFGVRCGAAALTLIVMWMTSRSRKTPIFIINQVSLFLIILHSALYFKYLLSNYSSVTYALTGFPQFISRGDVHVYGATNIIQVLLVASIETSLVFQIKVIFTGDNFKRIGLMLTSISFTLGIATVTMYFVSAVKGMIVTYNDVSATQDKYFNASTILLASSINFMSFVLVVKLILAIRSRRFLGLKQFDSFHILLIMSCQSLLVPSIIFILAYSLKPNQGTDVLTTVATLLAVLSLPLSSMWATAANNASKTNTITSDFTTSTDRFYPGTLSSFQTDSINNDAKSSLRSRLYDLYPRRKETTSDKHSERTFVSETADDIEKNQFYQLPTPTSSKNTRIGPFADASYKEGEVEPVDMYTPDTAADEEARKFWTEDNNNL
Test: cell-based or functional assay

“α-factor (from UniProt P01149 90-102) (peptide)” showed a Maximum Fold Induction, lacZ assay, Fus1p-lacZ reporter, ligand incubation 1 hr, Gα GPA1 of 22 fold, a Maximum Fold Induction, lacZ assay, Fus1p-lacZ reporter, ligand incubation 2 hrs, Gα GPA1 of 123 fold and a Maximum Fold Induction, lacZ assay, Fus1p-lacZ reporter, ligand incubation 3 hrs, Gα GPA1 of 218 fold. It also gave a Maximum Fold Induction, lacZ assay, LBF system (p8op-lacZ reporter), ligand incubation 1 hr, Gα GPA1 of 29 fold, a Maximum Fold Induction, lacZ assay, LBF system (p8op-lacZ reporter), ligand incubation 2 hrs, Gα GPA1 of 63 fold and a Maximum Fold Induction, lacZ assay, LBF system (p8op-lacZ reporter), ligand incubation 3 hrs, Gα GPA1 of 36 fold.
